{"source": "patent US6294384", "about": "“Compositions and methods based upon an isoform of p53” (The Brigham and Women's Hospital Inc., dated 2001)", "biological_target": "the molecule itself", "assay": "yeast two-hybrid system and immunoprecipitation", "data": [{"protein": "p35 isoform of p53 derived from rat cardiac myocytes (other) MEDSQSDMSIELPLSQETFSCLWKLLPPDDILPTTATGSPNSMEDLFLPQDVAELLEGPEEALQVSAPAAQEPGTEAPAPVAPASATPWPLSSSVPSQKTYQGNYGFHLGFLQSGTAKSVMCTYSISLNKLFCQLAKTCPVQLWVTSTPPPGTRVRAMAIYKKSQHMTEVVRRCPHHERCSDGDGLAPPQHLIRVEGNPYAEYLDDRQTFRHSVVVPYEPPEVGSDYTTIHYKYMCNSSCMGGMNRRPILTIITLEDSRSVGVSASACSES", "values": [{"measurement": "binding result", "value": "no binding"}]}]}
